This is an account of results in EP4660201A1 (dated 2025).

Residue numbers refer to the chain shown, from its start.

The target in assay [1] is KRAS G12V 7-16 epitope peptide … presented by HLA-A*11:01 (human). Put plainly: cell-based or functional assay.
For assay [2], the target named is T1, KRAS G12V 7-16, P6I peptide on HLA-A*11:01 (human).
T1 peptide: VVVGAIGVGK
As to the kind of experiment: cytokine release.

In assay [3] the target is T2, KRAS G12V 7-16, P6L peptide on HLA-A*11:01 (human).
T2 peptide: VVVGALGVGK
Put plainly: cytokine release.

Assay [4] has as its target T3, KRAS G12V 7-16, P7A peptide on HLA-A*11:01 (human).
T3 peptide: VVVGAVAVGK
As to the kind of experiment: cytokine release.

In assay [5] the target is T4, KRAS G12V 7-16, P7Q peptide on HLA-A*11:01 (human).
T4 peptide: VVVGAVQVGK
As to the kind of experiment: cytokine release.

The target of assay [6] is T5, KRAS G12V 7-16, P8C peptide on HLA-A*11:01 (human).
T5 peptide: VVVGAVGCGK
Put plainly: cytokine release.

For assay [7], the target named is T6, KRAS G12V 7-16, P8I peptide on HLA-A*11:01 (human).
T6 peptide: VVVGAVGIGK
Put plainly: cytokine release.

In assay [8] the target is T7, KRAS G12V 7-16, P8T peptide on HLA-A*11:01 (human).
T7 peptide: VVVGAVGTGK
Put plainly: cytokine release.

Assay [9] has as its target T8, KRAS G12V 7-16, P1T peptide on HLA-A*11:01 (human).
T8 peptide: TVVGAVGVGK
Put plainly: cytokine release.

Assay [10] concerns the target T9, KRAS G12V 7-16, P2I peptide on HLA-A*11:01 (human).
T9 peptide: VIVGAVGVGK
Put plainly: cytokine release.

The target in assay [11] is T10, KRAS G12V 7-16, P3A peptide on HLA-A*11:01 (human).
T10 peptide: VVAGAVGVGK
As to the kind of experiment: cytokine release.

Assay [12] has as its target T11, KRAS G12V 7-16, P3G peptide on HLA-A*11:01 (human).
T11 peptide: VVGGAVGVGK
As to the kind of experiment: cytokine release.

For assay [13], the target named is T12, KRAS G12V 7-16, P3I peptide on HLA-A*11:01 (human).
T12 peptide: VVIGAVGVGK
Put plainly: cytokine release.

The target of assay [14] is T13, KRAS G12V 7-16, P5C peptide on HLA-A*11:01 (human).
T13 peptide: VVVGCVGVGK
Put plainly: cytokine release.

Assay [15] deals with T14, KRAS G12V 7-16, P5S peptide on HLA-A*11:01 (human).
T14 peptide: VVVGSVGVGK
Put plainly: cytokine release.

Assay [16] has as its target T15, KRAS G12V peptide on HLA-A*11:01 (human).
T15 peptide: VVVGAVGVGK
Put plainly: IFN-gamma ELISA; TCR-T cells with T2KO-A1101 cells loaded with 1e-5 to 1e-11 M peptide, E:T 1:1, 20 h; Figure 6C; full-length, on cells. A general note: ELISA stands for enzyme-linked immunosorbent assay.

Assay [17] has as its target T15, KRAS G12V peptide on HLA-A*11:01. Put plainly: NFAT-GFP reporter in Jurkat (endogenous TCR knocked out); T2 cells loaded with 1e-5 to 1e-9 M target antigen peptide; full-length, on cells.
Assay [18] has the same target. Put plainly: luciferase killing assay; TCR-T cells with T2KO-A1101 cells loaded with 1e-5 to 1e-11 M peptide, E:T 9:1, 20 h; Figure 5C; full-length, on cells.
Assay [19] addresses KRAS G12D 7-16 epitope peptide … presented by HLA-A*11:01 (human). Put plainly: cell-based or functional assay.
Assay [20] has as its target T16, KRAS G12D peptide on HLA-A*11:01 (human).
T16 peptide: VVVGADGVGK
Put plainly: IFN-gamma ELISA; TCR-T cells with T2KO-A1101 cells loaded with 1e-5 to 1e-11 M peptide, E:T 1:1, 20 h; Figure 6D; full-length, on cells.

Assay [21] has as its target T16, KRAS G12D peptide on HLA-A*11:01. Put plainly: NFAT-GFP reporter in Jurkat (endogenous TCR knocked out); T2 cells loaded with 1e-5 to 1e-9 M target antigen peptide; full-length, on cells.
Assay [22] addresses T17, KRAS G12V 7-16, P5T peptide on HLA-A*11:01 (human).
T17 peptide: VVVGTVGVGK
Put plainly: cytokine release.

Assay [23] concerns the target T18, KRAS G12V 7-16, P5V peptide on HLA-A*11:01 (human).
T18 peptide: VVVGVVGVGK
Put plainly: cytokine release.

The target in assay [24] is T19, KRAS G12V 7-16, P8F peptide on HLA-A*11:01 (human).
T19 peptide: VVVGAVGFGK
As to the kind of experiment: cytokine release.

Assay [25] deals with T20, KRAS G12V 7-16, P8G peptide on HLA-A*11:01 (human).
T20 peptide: VVVGAVGGGK
Put plainly: cytokine release.

For assay [26], the target named is T21, KRAS G12V 7-16, P8L peptide on HLA-A*11:01 (human).
T21 peptide: VVVGAVGLGK
Put plainly: cytokine release.

Assay [27] concerns the target T22, KRAS G12V 7-16, P9A peptide on HLA-A*11:01 (human).
T22 peptide: VVVGAVGVAK
Put plainly: cytokine release.

Assay [28] addresses T23, KRAS G12V 7-16, P9D peptide on HLA-A*11:01 (human).
T23 peptide: VVVGAVGVDK
As to the kind of experiment: cytokine release.

In assay [29] the target is T24, KRAS G12V 7-16, P9N peptide on HLA-A*11:01 (human).
T24 peptide: VVVGAVGVNK
As to the kind of experiment: cytokine release.

Assay [30] concerns the target T25, KRAS G12V 7-16, P9Q peptide on HLA-A*11:01 (human).
T25 peptide: VVVGAVGVQK
As to the kind of experiment: cytokine release.

The target in assay [31] is T26, KRAS G12V 7-16, P9S peptide on HLA-A*11:01 (human).
T26 peptide: VVVGAVGVSK
As to the kind of experiment: cytokine release.

Assay [32] deals with T27, KRAS G12V 7-16, P3C peptide on HLA-A*11:01 (human).
T27 peptide: VVCGAVGVGK
Put plainly: cytokine release.

Assay [33] deals with T28, KRAS G12V 7-16, P3E peptide on HLA-A*11:01 (human).
T28 peptide: VVEGAVGVGK
As to the kind of experiment: cytokine release.

Assay [34] deals with T29, KRAS G12V 7-16, P3M peptide on HLA-A*11:01 (human).
T29 peptide: VVMGAVGVGK
As to the kind of experiment: cytokine release.

Assay [35] addresses T30, KRAS G12V 7-16, P3Q peptide on HLA-A*11:01 (human).
T30 peptide: VVQGAVGVGK
Put plainly: cytokine release.

Assay [36] has as its target T31, KRAS G12V 7-16, P3S peptide on HLA-A*11:01 (human).
T31 peptide: VVSGAVGVGK
Put plainly: cytokine release.

In assay [37] the target is T32, KRAS G12V 7-16, P1A peptide on HLA-A*11:01 (human).
T32 peptide: AVVGAVGVGK
As to the kind of experiment: cytokine release.

The target of assay [38] is T33, KRAS G12V 7-16, P5P peptide on HLA-A*11:01 (human).
T33 peptide: VVVGPVGVGK
Put plainly: cytokine release.

B1: KVA11-N04 (TCR, V domains shown)
Valpha: GESVGLHLPTLGVQEGDNSIINCAYSNSASDYFIWYKQESGKGPQFIIDIRSNMDKRQGQRVTVLLNKTVKHLSLQIAATQPGDSAVYFCAENSDGTSYGKLTFGQGTILTVHP
Vbeta: EAGVAQSPRYKIIEKRQSVAFWCNPISGHATLYWYQQILGQGPKLLIQFQNNGVVDDSQLPKDRFSAERLKGVDSTLKIQPAKLEDSAVYLCASSLVGSPDYEQYFGPGTRLTVT
B1: the EC50 of IFN-γ secretion with peptide-loaded T2KO-A1101 cells (ELISA, E:T 1:1, 20 hours) in [1] was 22 nM. Further, the EC50 of NFAT-GFP reporter activation, TCR in Jurkat-NFAT cells with peptide-loaded T2 cells in [1] came out at 28.9 nM. The molecule further returned an EC50 of killing of peptide-loaded T2KO-A1101 cells (luciferase, E:T 9:1, 20 hours) in assay [1] of 0.973 nM. Further, the binding result in [2], in assay [3], in assay [4], in [5], in assay [6] and in assay [7] was “recognises” in each case. Besides, the binding result in assay [8], in assay [9], in [10], in assay [11], in [12] and in assay [13] was “recognises” throughout. Further, the binding result in [14] and in assay [15] was “recognises” each time. Also, the EC50 of peptide was 22 nM in [16], 28.9 nM in assay [17] and 0.973 nM in assay [18].

B2: KDA11-N01 (TCR, V domains shown)
Valpha: QKEVEQNSGPLSVPEGAIASLNCTYSDRGSQSFFWYRQYSGKSPELIMSIYSNGDKEDGRFTAQLNKASQYVSLLIRDSQPSDSATYLCAVNLGAAGNKLTFGGGTRVLVKP
Vbeta: B1 Vbeta with L96F, V97S, G98D, P100Y, D101N, Y102S, E103P, Q104L, Y105H, P108N
In assay [19], B2 showed an EC50 of IFN-γ secretion with peptide-loaded T2KO-A1101 cells (ELISA, E:T 1:1, 20 hours) of 49.6 nM and an EC50 of NFAT-GFP reporter activation, TCR in Jurkat-NFAT cells with peptide-loaded T2 cells of 76.5 nM. In addition, the EC50 of peptide in [20] turned out to be 49.6 nM. The same molecule had an EC50 of peptide in assay [21] of 76.5 nM.

B3: KVA11-N02 (TCR, V domains shown)
Valpha: AQSVAQPEDQVNVAEGNPLTVKCTYSVSGNPYLFWYVQYPNRGLQFLLKYITGDNLVKGSYGFEAEFNKSQTSFHLKKPSALVSDSALYFCAVRDIEGAGNNRKLIWGLGTSLAVNP
Vbeta: DAGVIQSPRHEVTEMGQEVTLRCKPISGHNSLFWYRQTMMRGLELLIYFNNNVPIDDSGMPEDRFSAKMPNASFSTLKIQPSEPRDSAVYFCASSEGFYTEAFFGQGTRLTVV
For the molecule B3, the binding result in assay [22], in assay [23], in [2], in assay [24], in [25] and in assay [7] was “recognises” in each case. The binding result in [26], in assay [27], in [28], in assay [29], in [30] and in [31] was “recognises” each time. In addition, the binding result in [10], in assay [11], in assay [32], in assay [33], in assay [12] and in assay [13] was “recognises” throughout. In addition, the binding result in assay [34], in [35], in assay [36], in assay [14], in [37] and in [38] was “recognises” in each case. Also, the binding result in assay [15] is listed as “recognises”.
